Test results from article PMC4409929 (Cell, 2015).
Where a chain is given by its changes, count along the chain named. In names and notes the source's numbering stands. Like-named read-outs stand apart in the source and are kept apart here. Where no end group is shown, it is not given here. The star is where a group is joined. 5FAM = O=C1OC2(c3ccc(O)cc3Oc3cc(O)ccc32)c2ccc(C(=O)*)cc21

T1: TcEccC(cyto), cytoplasmic portion of EccC from Thermomonospora curvata (Thermomonospora curvata, UniProt D1A4G7 199-1315)
T1 sequence (looked up): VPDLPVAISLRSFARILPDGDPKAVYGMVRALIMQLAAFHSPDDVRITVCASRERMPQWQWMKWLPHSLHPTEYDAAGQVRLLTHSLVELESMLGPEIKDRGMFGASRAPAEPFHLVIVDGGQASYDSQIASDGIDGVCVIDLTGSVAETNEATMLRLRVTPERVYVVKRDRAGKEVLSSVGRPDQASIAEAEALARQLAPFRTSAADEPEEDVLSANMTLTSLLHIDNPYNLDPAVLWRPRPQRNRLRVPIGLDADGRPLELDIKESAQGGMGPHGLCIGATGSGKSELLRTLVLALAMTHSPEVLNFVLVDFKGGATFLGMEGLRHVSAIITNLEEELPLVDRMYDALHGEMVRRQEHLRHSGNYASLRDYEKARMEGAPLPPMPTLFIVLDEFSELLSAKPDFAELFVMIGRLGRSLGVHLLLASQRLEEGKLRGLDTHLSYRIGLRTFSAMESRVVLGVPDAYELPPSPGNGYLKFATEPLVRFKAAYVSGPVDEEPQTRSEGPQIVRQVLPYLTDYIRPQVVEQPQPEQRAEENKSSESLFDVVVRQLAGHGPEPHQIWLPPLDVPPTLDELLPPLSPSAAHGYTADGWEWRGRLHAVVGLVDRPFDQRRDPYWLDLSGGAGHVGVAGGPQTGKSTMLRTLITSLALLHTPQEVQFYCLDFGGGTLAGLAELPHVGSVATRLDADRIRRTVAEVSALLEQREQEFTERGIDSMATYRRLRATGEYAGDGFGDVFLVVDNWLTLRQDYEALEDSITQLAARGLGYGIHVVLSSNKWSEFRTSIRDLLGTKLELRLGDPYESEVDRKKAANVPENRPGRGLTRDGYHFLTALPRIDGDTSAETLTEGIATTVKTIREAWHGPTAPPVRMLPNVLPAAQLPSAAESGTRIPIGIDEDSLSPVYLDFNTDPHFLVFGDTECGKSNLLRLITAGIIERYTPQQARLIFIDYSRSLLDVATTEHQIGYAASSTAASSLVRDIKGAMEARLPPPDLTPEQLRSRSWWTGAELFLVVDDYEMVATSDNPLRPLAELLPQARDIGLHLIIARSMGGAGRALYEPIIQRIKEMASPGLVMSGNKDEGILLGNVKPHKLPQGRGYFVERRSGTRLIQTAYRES

B1: TcEsxA, EsxA of Thermomonospora curvata (natural protein, UniProt D1A4H1 1-97, looked up)
chain: MSDYTRANFGGLSEGEAQFSMTARALLDELTDLEGKLRAKLDRWDGDAQAAYWNYQKEWDAAAKDMQNVVAQLGVAIREAHDNYQAAERANTSIWAG
B2: TcEsxB, EsxB of Thermomonospora curvata (natural protein, UniProt D1A4H0 1-104, looked up)
chain: MAPQSAVDRAAMAQAAQDIEQSANAIRGMQNQLASAKDQLRSHWEGDASMAFEAVFNRFNEDFSRVLKALDGMHESLVQTRITYEAREEAAQQSVNRVQALLNG
B3: TcEsxAB heterodimer (complex, Thermomonospora curvata)
chain 1: B1 chain
chain 2: B2 chain
B4: TcEccC(cyto,R543A) (domain or fragment, Thermomonospora curvata, UniProt D1A4G7 199-1315, looked up)
chain: T1 sequence (looked up) with R345A
B5: fluorescently labeled signal sequence peptide 5-FAM-VNRVQALLNG (peptide)
peptide: 5FAM-VNRVQALLNG

How the values were obtained:
[1] = target: GbEssCb (Geobacillus thermodenitrificans, UniProt A4IKE7); conditions: ATP bound in both ATPase domains
[2] = target: B2
[3] = target: B4; assay: cell-based or functional assay
[4] = target: the molecule itself
[5] = target: T1, TcEccC(cyto), cytoplasmic portion of …
[6] = target: T1, TcEccC(cyto), cytoplasmic portion of …; assay: fluorescence polarisation
[7] = target: the molecule itself; assay: cross-linking
[8] = target: T1, TcEccC(cyto), cytoplasmic portion of …; assay: fluorescence polarisation; remark: listed apart in the source

Sequence of GbEssCb (A4IKE7 921-1479): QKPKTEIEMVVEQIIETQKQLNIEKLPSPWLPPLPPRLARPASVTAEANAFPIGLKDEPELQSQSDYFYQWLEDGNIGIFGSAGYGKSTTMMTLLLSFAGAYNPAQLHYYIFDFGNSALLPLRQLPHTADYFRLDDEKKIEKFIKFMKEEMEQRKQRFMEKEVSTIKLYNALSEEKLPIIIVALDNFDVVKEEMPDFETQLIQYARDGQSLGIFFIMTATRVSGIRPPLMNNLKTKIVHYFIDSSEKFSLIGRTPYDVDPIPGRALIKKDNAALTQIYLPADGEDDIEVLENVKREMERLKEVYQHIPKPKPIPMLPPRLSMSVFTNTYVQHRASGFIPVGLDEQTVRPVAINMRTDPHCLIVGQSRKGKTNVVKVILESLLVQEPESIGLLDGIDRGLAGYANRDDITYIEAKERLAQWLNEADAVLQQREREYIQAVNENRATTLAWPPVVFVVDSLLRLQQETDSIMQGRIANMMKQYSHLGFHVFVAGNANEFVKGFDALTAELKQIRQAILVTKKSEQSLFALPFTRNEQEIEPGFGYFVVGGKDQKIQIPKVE

Molecule: Nc1ncnc2c1ncn2[C@@H]1O[C@H](COP(=O)(O)OP(=O)(O)OP(=O)(O)O)[C@@H](O)[C@H]1O [ATP]
X-ray crystal structure [1]: has a very similar structure, with both domains bound to ATP

Molecule: B1
stoichiometry N [2]: 1

Molecule: B2
ATPase activity of TcEccC(cyto,R543A) with added TcEsxB (0-10 μM) [3]: 5 fold
stoichiometry N [4]: 2
Kd [5]: ~10 µM

Molecule: B3
binding result [6]: binds

Molecule: B4
binding result [7]: binds

Molecule: B5
binding result [8]: binds
